Earlier results on 1 substance are cited in article PMC11548882.

The data set has as its target EGFR (Homo sapiens) (UniProt P00533).

pKd: −log10 of the molar value.

In general, pKd refers to the negative decadic logarithm of the Kd, by convention in mol/L. EGF (from UniProt P01133): the pKd is 8.40.
